From publication PMC2784912 (Biochemistry, 2008)

Legend:
[1] = tested on: MDA-MB-231 cancer cell line; assay: Apoptosis by annexin V/propodium iodide flow cytometry; assay type: cell-based, human; conditions: MDA-MB-231, 24 h, annexin V/PI
[2] = molecular target: XIAP BIR3-only protein (residues 241–356) (human) (UniProt P98170); assay: fluorescence polarisation
[3] = molecular target: XIAP BIR2-only protein (residues 120–240) (human) (UniProt P98170); assay: fluorescence polarisation
[4] = molecular target: XIAP linker–BIR2–BIR3 protein (residues 120–356) (human) (UniProt P98170); assay: fluorescence polarisation

| Ki [2] [nM] | Ki [3] [nM] | Ki [4] [nM] | Molecule | induction of apoptosis [1] |
| --- | --- | --- | --- | --- |
| – | – | – | COC(=O)CC[C@H](NC(=O)[C@H](CC(=O)OC)NC(=O)OCc1ccccc1)C(=O)N[C@H](C(=O)N[C@@H](CC(=O)OC)C(=O)CF)C(C)C [Z-DEVD-FMK] | no effect on cells |
| 86 | 11700 | 900 | compound 2 (monovalent Smac mimetic, N-methyl-AKPF) (peptide) | – |
